Tests used:
[1] = system: isolated C. elegans mitochondria; experiment: Mitochondrial matrix pH measurement (BCECF-AM); assay type: biochemical, Caenorhabditis elegans; details: mtON activation by light
Method: The ratiometric pH indicator BCECF-AM (Thermo Fisher, B1170) was used to measure pH changes in the mitochondrial matrix in response to succinate respiration or mtON activation. Isolated mitochondria (˜200 μl per isolation) were incubated at room temperature with 50 μM BCECF-AM for 10 min with periodic mixing. Mitochondria were then pelleted at 7,000 g for 5 min at 4° C., and isolation media replaced and pelleted again to remove extramitochondrial BCECF-AM. Isolated mitochondrial suspensions were then assayed under the same conditions as in the mitochondrial membrane potential measurements described above. Ratiometric fluorescent signal was measured by Cary Eclipse Fluorescence Spectrophotometer (Agilent Technologies) using 440 and 490 nm excitation wavelengths and 545 nm emission. The fluorescence intensity ratio at 545 nm of 490/440 nm excitation wavelengths was used to represent pH changes in the mitochondrial matrix. Light treatment was 0.16 J/cm^2 (XCite LED, 0.02 mW/mm^2), and 2 μM FCCP was used at the end of each trace to establish baseline signal.

[2] = system: isolated C. elegans mitochondria; experiment: Mitochondrial O2 consumption (Clark-type electrode); assay type: biochemical, Caenorhabditis elegans; details: isolated mitochondria fueled with substrates, mtON activated
Method: O2 consumption was measured using a Clark-type O2 electrode (S1 electrode disk, DW2/2 electrode chamber and Oxy-Lab control unit, Hansatech Instruments, Norfolk UK) at 25° C. Isolated mitochondria were stirred in MRB at 1 mg/ml with 1 mg/ml fat-free BSA. Substrates and inhibitors were added by syringe port (100 μM ADP, 2 μM rotenone, 5 mM succinate). Given excess succinate as substrate for ETC respiration, we measured the amount of O2 required to convert 50 nmol of ADP to ATP and established a baseline for comparison. To test mtON activity, mitochondria were illuminated as in the ATP measurement, for 1, 5, or 10 min in the presence of ADP without succinate to allow for mtON conversion of ADP to ATP. Any remaining ADP was then converted using 02-dependent ETC respiration upon succinate addition. Slopes were calculated from plots of O2 concentration versus time to give rates of 02 consumption during ADP respiration, ADP+succinate respiration, and respiration after ADP had been entirely consumed. The intersections of these three rates were used to calculate total amount of O2 consumed during ADP+succinate respiration. Light activation of mitochondria (XCite LED, 0.02 mW/mm^2) during ADP respiration alone was carried out for differing lengths of time to test the ability of mtON to drive ADP consumption before succinate was added. […]

C. elegans [3] = experiment: Locomotion assay (body bends); assay type: in vivo, Caenorhabditis elegans; details: mtON activation
Method: […] One body bend was scored as a deflection of direction of motion of the posterior pharyngeal bulb. For AMPK activation, animals were placed on plates containing 1 mM AICAR 4 h before counting body bends. AICAR was dissolved in M9 buffer, added directly onto OP50 seeded plates, and allowed to dry. Illumination was continuous through measurements (MVX, 0.265 mW/mm^2).

AMPK = experiment: Immunoblot of phosphorylated AMPK; assay type: in vivo, Caenorhabditis elegans; details: animals removed from food, mtON activation
Method: Synchronized young adult animals were exposed to 1 Hz light (Quantum LED, 0.02 mW/mm2) for 4 h, and immediately harvested with ice-cold M9 media and centrifuged at 1,000×g for 1 min. Animals were ground by plastic pestle disruption in lysis buffer (20 mM Tris-HCl, 100 mM NaCl, 1 mM EDTA, 1 mM DTT, 10% glycerol, 0.1% SDS, pH 7.6, 1×Halt™ protease inhibitor cocktail, Thermo78429) and diluted 1:1 in sample loading buffer (100 mM Tris-HCl, 10% v/v glycerol, 10% SDS, 0.2% w/v bromophenol blue, 2% v/v b-mercaptoethanol). These samples were heated at 95° C. for 5 min. Isolated mitochondrial samples were prepared as described above and diluted 1:1 in sample loading buffer with 1% SDS. […] samples were loaded to 7.5% polyacrylamide gels and separated by SDS-PAGE. Proteins were transferred to nitrocellulose membranes and blocked in 5% non-fat milk/TBST (50 mM Tris, 150 mM NaCl, 0.05% Tween 20, pH 8.0) for 1 h at room temperature. Membranes were incubated at 4° C. in primary antibodies diluted 1:1,000 in 5% bovine serum albumin:anti-GFP (ClonTech Living Colours #ab632375), anti-ATP5a (Abcam, #ab14748), 1:60 anti-HSP60 (Department of Biology, Iowa City, IA 52242; Developmental Studies Hybridoma Bank, University of Iowa Department of Biology, Iowa City, IA 52242), […], anti-Actin (Abcam #ab14128), and 1:10,000 antiphospho-AMPKa Rabbit (Cell Signaling, #2535). […]

C. elegans [4] = experiment: Mitochondrial mass and unfolded protein response (staining, quantitative proteomics); assay type: in vivo, Caenorhabditis elegans
Method: Scale bar is 10 μm. Experiment was performed 3 times with similar results. […] Scale bar is 10 μm. Experiment was performed 3 times with similar results. C) Relative pharynx TMRE fluorescence in mtON (ex. array) animals stained at day 4 of adulthood under the indicated conditions. One-way ANOVA with Tukey's test, *p=0.0001, n=33, 34, 26, 35 animals for each bar from left to right. D) Relative pharynx MitoTracker fluorescence in animals stained at day 4 of adulthood.
Genes encoding proteins are as follows. Complex I: nuo-1, nuo-5. complex II: sdha-1, mev-1, sdhb-1. Complex III: isp-1. Complex IV: cox-5a. ATP synthase: R04F11.2, atp-5. Translocase of the outer membrane (TOM70): tomm-70. VDAC: vdac-1. Uniprot C. elegans proteome database protein codes are presented above each plot. B) Proteins that mediate the mitochondrial unfolded protein response are not affected by mtON activation, two-tailed unpaired t test, −ATR n=5, +ATR n=4 biological replicates. Genes encoding proteins are hsp-6 and hsp-60.

B1: mtON: fusion of the 187 N-terminal amino acids of mouse IMMT1 to the light-activated proton pump (Mac) from Leptosphaeria maculans (protein)
chain: MLRACQLSGVTVAAQSCLCGKFVLRPLRPCRRYSTSSSSGLTAGKIAGAGLLFVGGGIGGTILYAKWDSHFRESVEKTIPYSDKLFGMVLGSAPYTVPLPKKPVQSGPLKISSVSEVMKDSKLPVAQSQKTKGDTPASAASTGAAQIISAAGDTLSVPAPAVQHEDTIKTECPNTNEGKSTSETTEEPAGLIVDQFEEVLMKTSQLFPLPTATQSAQPTHVAPVPTVLPDTPIYETVGDSGSKTLWVVFVLMLIASAAFTALSWKIPVNRRLYHVITTIITLTAALSYFAMATGHGVALNKIVIRTQHDHVPDTYETVYRQVYYARYIDWAITTPLLLLDLGLLAGMSGAHIFMAIVADLIMVLTGLFAAFGSEGTPQKWGWYTIACIAYIFVVWHLVLNGGANARVKGEKLRSFFVAIGAYTLILWTAYPIVWGLADGARKIGVDGEIIAYAVLDVLAKGVFGAWLLVTHANLRESDVELNGFWANGLNREGAIRIGEDDGAR
modifications: Synthetic Complete mtON fusion protein sequence
- mitochondrial matrix pH (BCECF-AM ratio) [1]: matrix pH increased
- oxygen needed to make ATP [2]: decreased reliance on oxygen to make ATP
- locomotion off food (C. elegans [3]; animals off food): suppressing their movement
- locomotion speed (body bends per minute) (C. elegans [3]; complex I mutant background (gas-1), in presence of food): rescued the decreased locomotion
- AMPK phosphorylation (AMPK): prevented this phosphorylation
- targets of the mitochondrial unfolded protein response (C. elegans [4]; after mtON activation): did not change
- mitochondrial mass (C. elegans [4]; mitochondrial staining and quantitative proteomics): did not impact mitochondrial mass

Source: patent US20260167679A1, “FUSION PROTEIN TARGETING MITOCHONDRIA, METHOD OF MAKING AND USE THEREOF” (UNIVERSITY OF ROCHESTER, priority 2020, published 2026)
